Results reported in paper PMC11418127, “Structures of LIG1 uncover the mechanism of sugar discrimination against 5′-RNA-DNA junctions during ribonucleotide excision repair”.

Columns and labels:
[1] = biological target: LIG1 WT (C-terminal, Δ261) (UniProt P18858 262-919); test: X-ray crystallography; AMP covalently bound to K568 (step 1); 1 mM ATP, 1 mM EDTA; Crystallization: 20 mM Tris-HCl pH 7.0, 200 mM NaCl, 1 mM DTT, 1 mM EDTA, 1 mM ATP, LIG1 27 mg/ml, DNA:protein 1.4:1, hanging drop at 20 °C; conditions: protein: recombinant; tags: 6xHis; nicked duplex: 18-nt template, 11-nt upstream, 7-nt downstream; blunt outer ends
LIG1 WT (C-terminal, Δ261), sequence (P18858 262-919, stated change not applied): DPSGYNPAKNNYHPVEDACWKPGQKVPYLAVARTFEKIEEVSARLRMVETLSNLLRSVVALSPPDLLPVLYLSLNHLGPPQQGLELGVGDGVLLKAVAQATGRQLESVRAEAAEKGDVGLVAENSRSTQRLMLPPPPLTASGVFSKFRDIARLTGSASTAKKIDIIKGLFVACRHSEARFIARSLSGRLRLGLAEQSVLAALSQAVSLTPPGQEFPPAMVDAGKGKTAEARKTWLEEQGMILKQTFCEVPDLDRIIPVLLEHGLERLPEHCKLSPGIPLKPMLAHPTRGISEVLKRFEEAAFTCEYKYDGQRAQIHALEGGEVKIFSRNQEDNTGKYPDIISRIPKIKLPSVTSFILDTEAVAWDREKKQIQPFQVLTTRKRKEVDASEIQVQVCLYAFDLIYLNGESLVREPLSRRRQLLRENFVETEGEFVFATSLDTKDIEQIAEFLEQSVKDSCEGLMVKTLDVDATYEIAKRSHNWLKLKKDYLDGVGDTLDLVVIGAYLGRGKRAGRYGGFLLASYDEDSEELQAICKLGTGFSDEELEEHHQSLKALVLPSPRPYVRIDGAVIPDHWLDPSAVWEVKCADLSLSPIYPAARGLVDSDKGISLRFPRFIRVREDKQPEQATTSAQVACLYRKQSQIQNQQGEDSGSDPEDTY

[2] = biological target: LIG1 EE/AA (C-terminal, Δ261) (UniProt P18858 262-919, E346A;E592A); test: as above; conditions: protein: recombinant; tags: 6xHis; nicked duplex: 18-nt template, 11-nt upstream, 7-nt downstream; blunt outer ends
LIG1 EE/AA (C-terminal, Δ261), sequence (P18858 262-919 E346A/E592A): as the sequence (P18858 262-919, stated change not applied) above, with E85A, E331A counted along it

B1: nick DNA 5'-rG:C (mixed)
DNA 1: GTCCGACCACGCATCAGC
DNA 2: GCTGATGCGTG
DNA 3: GTCGGAC
modifications: ribonucleotide rG at position 1 of downstream strand (strand 3); 5'-phosphate on strand 3
[1]
  binding result: binds
[2]
  binding result: binds
